The source of these data is patent US20220041754A1 (CRISPR THERAPEUTICS, published 2022).

In assay [1] the target is T1, anti-CD70 CAR of SEQ ID NO: 6.
T1 construct: also called anti-CD70 CAR T cells; anti-CD70 chimeric antigen receptor
In words: flow cytometry, antibody dilution 1:50, cell population with about 65.4% anti-CD70 CAR+ cells. A general note: Flow cytometry measures light scatter and fluorescence of single cells or particles in a stream.

Assay [2] has the same target. The experiment in a line: flow cytometry, antibody dilution 1:100, cell population with about 65.4% anti-CD70 CAR+ cells.
Assay [3] has the same target. The experiment in a line: flow cytometry, antibody dilution 1:200, cell population with about 65.4% anti-CD70 CAR+ cells.
Assay [4] has the same target. In words: flow cytometry, antibody dilution 1:400, cell population with about 65.4% anti-CD70 CAR+ cells.
The target is the same in assay [5]. In words: flow cytometry, antibody dilution 1:800, cell population with about 65.4% anti-CD70 CAR+ cells.
Assay [6] shares this target. In words: flow cytometry, antibody dilution 1:1600, cell population with about 65.4% anti-CD70 CAR+ cells.
For assay [7] the target is unchanged. The experiment in a line: flow cytometry, antibody dilution 1:3200, cell population with about 65.4% anti-CD70 CAR+ cells.
For assay [8] the target is unchanged. In words: flow cytometry, antibody dilution 1:6400, cell population with about 65.4% anti-CD70 CAR+ cells.
The target in assay [9] is T2, anti-BCMA CAR of SEQ ID NO: 7.
T2 construct: also called anti-BCMA CAR T cells
T2 sequence (chain, as listed by the source limits assumed): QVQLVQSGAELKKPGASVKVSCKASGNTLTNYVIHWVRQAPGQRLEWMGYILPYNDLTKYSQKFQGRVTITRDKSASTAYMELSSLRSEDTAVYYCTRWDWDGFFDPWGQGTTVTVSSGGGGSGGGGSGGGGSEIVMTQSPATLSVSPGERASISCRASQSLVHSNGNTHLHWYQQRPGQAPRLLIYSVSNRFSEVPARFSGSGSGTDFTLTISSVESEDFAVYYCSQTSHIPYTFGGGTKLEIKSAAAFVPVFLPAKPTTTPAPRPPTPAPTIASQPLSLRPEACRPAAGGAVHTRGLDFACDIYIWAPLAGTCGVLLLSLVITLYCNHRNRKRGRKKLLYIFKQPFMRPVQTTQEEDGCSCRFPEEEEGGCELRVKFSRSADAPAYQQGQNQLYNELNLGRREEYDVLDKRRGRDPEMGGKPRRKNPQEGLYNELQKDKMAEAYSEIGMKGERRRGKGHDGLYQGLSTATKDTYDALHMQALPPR
The experiment in a line: flow cytometry on anti-BCMA CAR T cells, antibody at fold dilutions 100 to 12800, % CAR positive cells. The protocol: (§1) The purified 20H05-02D09 antibody was analyzed by flow cytometry for binding to CAR T cells expressing the anti-CD70 CAR of SEQ ID NO: 6 (anti-CD70 CAR T cells). CAR T cells expressing an anti-BCMA CAR of SEQ ID NO: 7 (anti-BCMA CAR T cells) or an anti-CD19 CAR SEQ ID NO: 8 (anti-CD19 CAR T cells) were used as negative controls. Anti-CD70-scFv antibody (20H05-02D09) was analyzed at various dilutions (FIG. 2).

The target in assay [10] is T3, anti-CD19 CAR SEQ ID NO: 8.
T3 construct: also called anti-CD19 CAR T cells
In words: flow cytometry on anti-CD19 CAR T cells, antibody at fold dilutions 100 to 12800, % CAR positive cells. The protocol:
as §1

T1 sequence (chain, as listed by the source limits assumed): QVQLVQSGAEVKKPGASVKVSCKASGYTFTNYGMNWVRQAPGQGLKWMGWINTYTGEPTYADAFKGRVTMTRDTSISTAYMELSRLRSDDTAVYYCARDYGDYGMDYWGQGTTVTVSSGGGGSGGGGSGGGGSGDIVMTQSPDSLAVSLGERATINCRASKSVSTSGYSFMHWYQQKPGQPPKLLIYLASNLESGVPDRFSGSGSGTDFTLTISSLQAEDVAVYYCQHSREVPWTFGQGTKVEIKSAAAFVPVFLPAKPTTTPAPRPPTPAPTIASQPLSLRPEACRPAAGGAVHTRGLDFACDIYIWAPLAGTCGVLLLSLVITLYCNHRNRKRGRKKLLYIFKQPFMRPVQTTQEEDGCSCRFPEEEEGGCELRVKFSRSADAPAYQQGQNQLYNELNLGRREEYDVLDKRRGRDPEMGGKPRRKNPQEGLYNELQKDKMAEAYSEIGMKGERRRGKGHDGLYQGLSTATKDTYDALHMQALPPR

B1: mouse anti-CD70-scFv monoclonal antibody 20H05-02D09 (antibody, mouse IgG1, kappa, V domains shown)
VH: QIQLVQSGPELKKPGETVKISCKASGYTFTNYGMHWVKQAPGKVLKWMGWINTYSGVPTYPDDFKGRFAFSLETSASTASLQINNLKNEDTATYFCATERLRGWFPFWGQGTLVTVSA
VL: QIVLTQSPAIMSASPGEKVTISCSASSSVSYMYWYQQKPGSSPKPWIYRTSNLASGVPARFSGSGSGTSYSLTISSMEAEDAATYYCQQYHSYPPTFGGGTKLEIKR
notes: also called 20H05-2D09; native 20H05-2D09
As for B1, the “percentage of anti-CD70 CAR+ cells” value in [1] turned out to be 67.7%; in assay [2], 67.5%; in assay [3] it was 68.3%; in [4] it was 67.2%; in assay [5] it was 66.5%; in assay [6], 65.4%. The “percentage of anti-CD70 CAR+ cells” value in [7] turned out to be 67.8%; in assay [8] it was 66.5%. The binding result in [9] and in assay [10] was “no binding” in each case.

B2: biotin conjugated 20H05 (antibody, mouse IgG1, kappa, V domains shown)
VH: QIQLVQSGPELKKPGETVKISCKASGYTFTNYGMHWVKQAPGKVLKWMGWINTYSGVPTYPDDFKGRFAFSLETSASTASLQINNLKNEDTATYFCATERLRGWFPFWGQGTLVTVSA
VL: QIVLTQSPAIMSASPGEKVTISCSASSSVSYMYWYQQKPGSSPKPWIYRTSNLASGVPARFSGSGSGTSYSLTISSMEAEDAATYYCQQYHSYPPTFGGGTKLEIKR
modifications: conjugated with biotin; site and chain not stated
Regarding B2, the “percentage of anti-CD70 CAR+ cells” value turned out to be 66.3% in [1]; 65.9% in [2]; 67.6% in [3]; 66.4% in assay [4]; 67% in assay [5]; 66.4% in assay [6]. Besides, the “percentage of anti-CD70 CAR+ cells” value in assay [7] came out at 66.2%; in assay [8] it was 65.3%.

B3: APC conjugated 20H05 (antibody, mouse IgG1, kappa, V domains shown)
VH: QIQLVQSGPELKKPGETVKISCKASGYTFTNYGMHWVKQAPGKVLKWMGWINTYSGVPTYPDDFKGRFAFSLETSASTASLQINNLKNEDTATYFCATERLRGWFPFWGQGTLVTVSA
VL: QIVLTQSPAIMSASPGEKVTISCSASSSVSYMYWYQQKPGSSPKPWIYRTSNLASGVPARFSGSGSGTSYSLTISSMEAEDAATYYCQQYHSYPPTFGGGTKLEIKR
modifications: conjugated with APC (allophycocyanin); site and chain not stated
notes: also called direct APC conjugated antibody
Take B3: the “percentage of anti-CD70 CAR+ cells” value in [1] came out at 60.8%; in assay [2], 61.3%; in assay [3] it was 61.7%; in assay [4], 61.8%; in assay [5], 61.5%; in assay [6] it was 61.4%. The entries for the “percentage of anti-CD70 CAR+ cells” value in assay [7] and in [8] were 62.7% and 62.4%, respectively.
